Target: the molecule itself
Experiment: SEC; Superdex 200 increase 10/300; retention volume compared with Bio-Rad gel filtration standards; 20 mM Tris-HCl pH 8.0, 150 mM NaCl

B1: gastrointestinal HAstV-VA1 capsid spike (HAstV-VA1^gastro spike), residues 408-684 (domain or fragment)
chain: PIPPTGVPVGDFYVCGRMTTLHMGGQSGIQATTLVNGMIYRTDHPEPSTSPVSNWEFTVLENNTIVGAGMGCVWFQKSEALVWTLDGQKLSGWNTLDGVGTTQLTVAWRQHNRTIYGWANVVAWNSEEWHTNAEQPHQPILRLTYWLVKINVLSEPEDFDVVQKSPLAYLEDYTTAQSKSAIQKLNFQTFQKPEGGGTLRAQYSTTPRQGDFAVIWQIGRHNFDMSTGKGTPVESLSDYVMPQQKDAHIGMWYRALTSVGPRSDVLTLHFHLPTVEK
notes: Capsid precursor protein (VP86, ORF2) of human astrovirus VA1, gastrointestinal strain, NCBI YP_003090288.1, spike structural domain residues 408-684; C-terminal thrombin site and 10-histidine tag; tag removed with thrombin before SEC and crystallisation; Homodimer; also called VA1 Spike^Gastro; HAstV-VA1 spike; source: E. coli T7 Express, purified (TALON, thrombin digestion, SEC on Superdex 200 …)
  stoichiometry N: 2
